B1: GlpKCb (Clostridium beijerinckii NCIMB 8052) (protein)
chain: MKKYILALDQGTTSSRAIIFDKEQNILGVSQKEFTQIYPNQGWVEHNPLEIWASQYGVLQEVIAKTNITQEEVAAIGITNQRETTIVWDKNTGEPVYNAIVWQCRRTAGIIEELKLDKEFSEYVKENTGLLLDAYFSATKIKWILDNVEGARERAEKGELLFGTVDTWLVWKLTNGKVHVTDYTNASRTMLYNIKELRWDERILEKLNIPKSMLPEVKNSSEVYGYTNLGGTGGVRVPIAGMAGDQQCALFGQTCFEEGSVKNTYGTGCFLLMNTGEKMIHSKNGLVSTIAVGIDGKVQYALEGSVFVGGAVIQWIRDELKLVTDAADTEYFAQKVEDNGGVYVVPAFTGLGAPYWDMYARGAIFGLTRGANRNHIIRAALESIAYQSKDLIDAMQEDAGCKLTRLKVDGGASRNNLLMQFQADITGAEVVRPIITETTALGAAYLAGLAVGFWKSKEEIAEKWAVSQSYSPNLAEEKKEKLYKGWKKAVKRAEGWEEE
notes: recombinant, His-tagged (pDEST17 or pETCC2), E. coli, Ni and size exclusion purified
B2: AceKMs (Mycolicibacterium smegmatis MC2 155) (protein)
chain: MTVLVVNSGSSSLKYAVVRPASGEFLADGIIEEIGSGAVPDHDAALRAAFDELAAAGLHLEDLDLKAVGHRMVHGGKTFYKPSVVDDELIAKARELSPLAPLHNPPAIKGIEVARKLLPDLPHIAVFDTAFFHDLPAPASTYAIDRELAETWHIKRYGFHGTSHEYVSQQAAIFLDRPLESLNQIVLHLGNGASASAVAGGKAVDTSMGLTPMEGLVMGTRSGDIDPGVIMYLWRTAGMSVDDIESMLNRRSGVLGLGGASDFRKLRELIESGDEHAKLAYDVYIHRLRKYIGAYMAVLGRTDVISFTAGVGENVPPVRRDALAGLGGLGIEIDDALNSAKSDEPRLISTPDSRVTVLVVPTNEELAIARACVGVV
notes: recombinant, His-tagged (pDEST17 or pETCC2), E. coli

Tests used:
Assay in all cases: purified protein
purified protein [1] = substrate: Nc1ncnc2c1ncn2[C@@H]1O[C@H](COP(=O)(O)OP(=O)(O)OP(=O)(O)O)[C@@H](O)[C@H]1O; format: biochemical, Clostridium beijerinckii; settings: glycerol in excess, 10 mM MgCl2, 50 mM NaHCO3 pH 9.2, room temperature
Excerpt: (§1) HPLC of ADP and ATP on GlpKCb

purified protein [2] = substrate: OCC(O)CO; format: biochemical, Clostridium beijerinckii; settings: ATP in excess, 10 mM MgCl2, 50 mM NaHCO3 pH 9.2, room temperature
Excerpt: as §1

purified protein [3] = substrate: Nc1ncnc2c1ncn2[C@@H]1O[C@H](COP(=O)(O)OP(=O)(O)O)[C@@H](O)[C@H]1O; format: biochemical, Mycolicibacterium smegmatis; settings: acetyl phosphate in excess, Mg2+, room temperature, buffer as for glycerol kinase (pH 9.2)
Excerpt: (§2) HPLC of ADP and ATP on AceKMs

purified protein [4] = substrate: CC(=O)OP(=O)(O)O; format: biochemical, Mycolicibacterium smegmatis; settings: ADP in excess, Mg2+, room temperature, buffer as for glycerol kinase (pH 9.2)
Excerpt: as §2

Protein	Km (purified protein [1]) [µM]	kcat (purified protein [1]) [s⁻¹]	kcat/Km (purified protein [1]) [M⁻¹ s⁻¹]	Km (purified protein [2]) [µM]	kcat (purified protein [2]) [s⁻¹]	kcat/Km (purified protein [2]) [M⁻¹ s⁻¹]	Km (purified protein [3]) [µM]	kcat (purified protein [3]) [s⁻¹]	kcat/Km (purified protein [3]) [M⁻¹ s⁻¹]	Km (purified protein [4]) [µM]	kcat (purified protein [4]) [s⁻¹]	kcat/Km (purified protein [4]) [M⁻¹ s⁻¹]
B1	135 ± 16	93	690000	356 ± 27	93	260000						
B2							113 ± 9	1100	9.8e+06	390 ± 8	1103	2.8e+06
